{
  "source": "patent US20170275380A1",
  "about": "(ROCHE DIAGNOSTICS OPERATIONS, published 2017)",
  "binders": {"B1": {"name": "antibody 4.1.43 (antibody, V domains shown)", "VH": "EVQLQQSGPVLVKPGASVKMSCRPSGYTFTDYNMHWVKQSHEKSLEWIGYINPKNGIISYNQKFKDKATLTVNKSSRTAYMELRSLTSEDSAVYFCAGDYWGQGTSVTVSS", "VL": "DVVMTQTPLSLPVSLGDQASISCRSSQSLVHSNGNTYLHWYLQKPGQSPKLLISKVSNRFSGVPDRFSGSGSGTDFTLKISRVEAEDLGVYFCSQSIHLPWTFGGGTKLEIK", "notes": "Mouse monoclonal antibody, tested from hybridoma supernatant captured by anti-mouse IgG Fc; also called selected antibody directed against HER2"}, "B2": {"name": "antibody 7.2.32 (antibody, V domains shown)", "VH": "EVQLQESGGGLVQPKGSLQLSCAASGFTFNTYAMHWVRQAPGKGLEWVARIRTESSDYATDYADSVKDRFIISRDDSQNMLYLQMNNLKSEDTAIYYCVRSSGFDYWGQGTTLTVSS", "VL": "DIQMTQSPSLPVSLGDQASISCRSSQSLVHDNGNTYLHWFLQKPGQSPKLLIYKVSNRFSGVPDRFGGSGSGTDFTLKISGVEAEDLGVYFCSQGTHVPTFGGGTKLEIK", "notes": "Mouse monoclonal antibody, tested from hybridoma supernatant captured by anti-mouse IgG Fc; also called selected antibody directed against HER3"}, "B3": {"name": "mAb 1.4.168 (antibody, V domains shown)", "VH": "DVKLVESGGGLVKPGGSLKLSCAASGFTFSDYPMSWVRQTPEKRLEWVATITTGGTYTYYPDSIKGRFTISRDNAKNTLYLQMGSLQSEDAAMYYCTRVKTDLWWGLAYWGQGTLVTVSA", "VL": "QLVLTQSSSASFSLGASAKLTCTLSSQHSTYTIEWYQQQPLKPPKYVMELKKDGSHTTGDGIPDRFSGSSSGADRYLSISNIQPEDESIYICGVGDTIKEQFVYVFGGGTKVTVLG", "notes": "Murine monoclonal IgG from hybridoma; also called M-1.4.168-IgG; M-1.004.168-IgG"}},
  "key": {"[1]": {"molecular_target": "T1, human HER2(1223-1236)-Bi-PEG-amide (human, also: Bi-PEG (biotin-PEG), place not given here)", "T1 construct": "Injected as analyte singly grafted on streptavidin; also called HER2 peptide", "T1 peptide": "WDQDPPERGAPPST-NH2", "experiment": "SPR kinetic screening (Biacore A100); mAb captured by anti-mouse IgG Fc; peptide grafted on streptavidin as analyte; Langmuir model; anti-HER2 antibody, HER2 peptide", "procedure": "(§1) A BIACORE™ A100 instrument under control of the software version V1.1 is used. A BIACORE™ CMS chip is mounted into the instrument and is hydrodynamically addressed conditioned according to the manufacturer's instructions. As a running buffer an HBS-EP buffer is used (10 mM HEPES (pH 7.4), 150 mM NaCl, 1 mM EDTA, 0.05% (w/v) P20). A polyclonal rabbit anti-mouse IgG Fc capture antibody is immobilized at 30 μg/ml in 10 mM sodium acetate buffer (pH 4.5) to spots 1, 2, 4 and 5 in flow cells 1, 2, 3 and 4 at 10,000 RU. The antibody is covalently immobilized via NHS/EDC chemistry. The sensor is deactivated thereafter with a 1 M ethanolamine solution. Spots 1 and 5 are used for the determination and spots 2 and 4 are used as reference. Prior to application to the sensor chip the hybridoma supernatants containing mAbs are diluted 1:2 in HBS-EP buffer. The diluted solution is applied at a flow rate of 30 μl/min for 1 min. Immediately thereafter the analyte, human HER3(1242-1267)-Bi-PEG-amide (SEQ ID NO:26) or human HER2(1223-1236)-Bi-PEG-amide (SEQ ID NO:25), singly grafted on streptavidin, is injected at a flow rate of 30 μl/min for 2 min. Thereafter, the signal is recorded for 5 min dissociation time. The sensor is regenerated by injecting a 10 mM glycine-HCl solution (pH 1.7) for 2 min, at a flow rate of 30 μl/min."}, "[2]": {"molecular_target": "T2, human HER3(1242-1267)-Bi-PEG-amide (human, Bi-PEG (biotin-PEG); C-terminal amide)", "T2 construct": "Injected as analyte singly grafted on streptavidin; also called HER3 peptide", "T2 peptide": "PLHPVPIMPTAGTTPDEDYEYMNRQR", "experiment": "SPR kinetic screening (Biacore A100); mAb captured by anti-mouse IgG Fc; peptide grafted on streptavidin as analyte; Langmuir model; anti-HER3 antibody, HER3 peptide", "procedure": "as §1"}, "[3]": {"molecular_target": "T3, IGF-1R(1340-1366)[1346-pTyr; Glu(Bi-PEG-1340]amid (phosphotyrosine at 1346; PEG-linker with biotin bound via glutamic acid corresponding to position 1340; C-terminal amide)", "T3 construct": "also called pIGF-1R peptide (biotinylated); phosphorylated IGF-1R peptide", "T3 peptide": "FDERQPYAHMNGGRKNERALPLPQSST", "experiment": "SPR (Biacore 2000, 25 C); hybridoma supernatant 1:2 over biotinylated peptide on SA chip", "procedure": "(§2) Further, surface plasmon resonance was used to determine the antigen specificity. A BIACORE™ 2000 instrument (GE Healthcare) was used with a BIACORE™ SA sensor mounted into the system at T=25° C. and was preconditioned at 100 μl/min with 3×1 min injection of 1 M NaCl in 50 mM NaOH and 1 min 10 mM HCl. The system buffer was HBS-ET (10 mM HEPES pH 7.4, 150 mM NaCl, 1 mM EDTA, 0.05% TWEEN® 20). The sample buffer was the system buffer+1 mg/ml CMD (Carboxymethyldextrane, Sigma).\n(§3) Subsequently, biotinylated peptides were captured on the SA surface in the respective flow cells. The flow cells finally were saturated with 2 μM d-biotin. […] Flow cell 1 served as a reference. A blank buffer injection was used instead of an antigen injection to double reference the data by buffer signal subtraction. The data was evaluated according to the BIACORE™ evaluation software 1.1.1. The signal height was measured at the end of the injection time, Binding Late (RU)."}, "[4]": {"molecular_target": "Bi-InsulinR(1356-1382)p1361 (phosphotyrosine at 1361; biotin)", "sequence (peptide, as listed by the source)": "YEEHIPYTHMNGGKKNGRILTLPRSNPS", "experiment": "SPR (Biacore 2000, 25 C); hybridoma supernatant 1:2 over biotinylated peptide on SA chip", "procedure": "as §2, §3"}, "[5]": {"molecular_target": "T4, IGF-1R(1340-1366); Glu(Bi-PEG-1340]amid (PEG-linker with biotin bound via glutamic acid corresponding to position 1340; C-terminal amide)", "T4 construct": "also called IGF-1R peptide (biotinylated, non-phosphorylated); IGF-1R(1340-1366)PEG-Bi", "T4 peptide": "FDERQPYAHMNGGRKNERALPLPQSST", "experiment": "SPR (Biacore 2000, 25 C); hybridoma supernatant 1:2 over biotinylated peptide on SA chip", "procedure": "as §2, §3"}},
  "note": "No end group written: not given here.",
  "data": [
    {"binder": "B1", "values": [
      {"measurement": "koff", "setting": "[1]", "value": 0.000963, "unit": "s⁻¹"}
    ]},
    {"binder": "B2", "values": [
      {"measurement": "koff", "setting": "[2]", "value": 0.0023, "unit": "s⁻¹"}
    ]},
    {"binder": "B3", "values": [
      {"measurement": "Binding Late (RU)", "setting": "[3]", "value": 265, "unit": "RU"},
      {"measurement": "Binding Late (RU)", "setting": "[4]", "value": 0, "unit": "RU"},
      {"measurement": "Binding Late (RU)", "setting": "[5]", "value": 199, "unit": "RU"}
    ]}
  ]
}
